4 molecules from patent publication US20190083619A1, “METHODS AND COMPOSITIONS FOR REMOVING, REDUCING, DISPERSING, DISRUPTING OR ERADICATING BIOFILMS AND DETERMINING THE NUMBER OF BACTERIAL POPULATION IN BIOFILM OR A CULTURE CONTAINING BACTERIAL AGGREGATE” (INSTITUTE OF MICROBIOLOGY, CHINESE ACADEMY OF SCIENCES, priority 2017, published 2019) can be followed below.

The subject of data set [1] is ΔpaaP strain. Put plainly: MIC by E test strips. Conditions: E test strip, 37° C. overnight; FIG. 9A. Format: cell-based, P. aeruginosa. The protocol: The MIC (minimum inhibition concentration) of ΔpaaP strain to tobramycin and ciprofloxacin, two antibiotics commonly used to treat P. aeruginosa infections, was tested by E test strips. Overnight culture was diluted to OD600˜0.1, and spread on the plate. The E test strip was put onto the plate, cultivated at 37° C. overnight, and the minimum inhibition concentration was recorded according to the E test strip.

In data set [2] the test system is psl transcription in PAO1. Put plainly: psl transcription detected by psl::gfp reporter plasmid. The data set is classed as cell-based, P. aeruginosa. The following applies: 5 μM C12-HSL added to PAO1 culture; FIG. 3E.
Data set [3] deals with Psl production in PAO1. Put plainly: Psl production by anti-Psl immunodot blotting. Format: cell-based, P. aeruginosa. The following applies: 5 μM C12-HSL added to culture medium; FIG. 3D. The protocol:
To examine Psl production, exopolysaccharide Psl extracts were collected from overnight cultures equivalent to approximately 10 OD600 and examined by immunodot blotting using an anti-Psi antibody. For the effect of C12-HSL on Psl production, 5 μM C12-HSL was added to the medium after inoculation. The software Image Lab™ was used to quantify the immunodot blotting data.
LasI directs the synthesis of the QS signal molecular, N-(3-oxododecanoyl)-L-homoserine lactone (C12-HSL). Thus, whether C12-HSL supplement could affect Psl production in PAO1 was examined. […] C12-HSL is usually associated with the transcriptional regulator LasR to active their target genes.

The target of data set [4] is T1, (2S,3R)-3-Amino-2-hydroxy-5-methylhexanoyl-Val-Val-Asp (Amastatin).
T1 chain: VVD

In data set [5] the test system is PAO1 biofilms. Put plainly: Dispersal of air-liquid interface biofilms and live cell counting by CFU. The data set is classed as cell-based, P. aeruginosa. The following applies: 50 nM PslG, 30° C., 1 h, versus tissue homogenate and control; FIG. 14. The protocol: The PAO1 strain was inoculated on LBNS solid medium plates and overnight incubated at 37° C. Then monoclones of the PAO1, collected from the LBNS solid medium plates, were inoculated in LBNS liquid medium and incubated at 37° C. overnight with shaking at 200 rpm. The culture was washed with PBS for once. Then the culture was inoculated in Jensen's liquid medium at 1:100 (V:V), and incubated at 30° C. in a 24-pore plate. Biofilms were formed at the air-liquid interface. The liquid under the biofilms was removed by a pipettor. The biofilms were washed with PBS for twice so as to remove free bacterial cells that are not embedded in the biofilms. The biofilms were added in PBS for subsequent treatment. For a tissue homogenate treatment group, a sterile glass homogenizer (1 mL) was used to homogenize the biofilms for three times. For PslG treatment group, PslG was added to the biofilms, and the final concentration of PslG is 50 nM. The biofilms were incubated at 30° C. for 1 h. For a control group, no treatment was performed on the biofilms at this stage. Afterwards, the biofilm samples from the tissue homogenate treatment group, the PslG treatment group, and the control group were homogenized using a pipette and then votexed. The biofilm samples were diluted in PBS at 1:10. […] The numbers of live cells in the biofilm samples was determined based on the CFUs.

The test system of data set [6] is MJK8. Briefly: Dispersal of bacterial aggregates in liquid culture, OD600 read. The data set is classed as cell-based, P. aeruginosa. Conditions: 100 nM PslG, Jensen's or LBNS medium, 3 h and 6 h; FIG. 13A, 13B. The protocol:
(§1) PAO1-derived rugose small colony variant (RSCV) strain MJK8 was grown in LBNS at 37° C. 200 rpm overnight. This overnight culture was washed and then inoculated into Jensen's medium or in LBNS medium at 1:50 with or without 100 nM of PslG. Bacterial growth was determined by taking OD600 read at 3 h and 6 h post inoculation. P. stutzeri strain A1501 was firstly grown in LD medium at 30° C. 200 rpm overnight. The overnight culture was washed and inoculated into KLG^+ medium at 1:50 with or without 100 nM of PslG. OD600 was taken at 3 h, 6 h and 30 h post inoculation to monitor the bacterial growth. FIGS. 13A-13C show the comparison of OD600 read with or without PslG treatment of: MJK8 growth in chemically defined Jensen's medium (FIG. 13A); MJK8 growth in LBNS rich medium (FIG. 13B); A1501 growth in KLG^+ medium (FIG. 13C).

The test system of data set [7] is A1501. Described as above. The data set is classed as cell-based, P. stutzeri. Conditions: 100 nM PslG, KLG+ medium, 3 h, 6 h, 30 h; FIG. 13C. The protocol:
as §1

A short description of data set [8]: In vitro treatment of Psl extract, elution profile on Sephadex G-50 column. Format: biochemical, P. aeruginosa. The following applies: exogenous-supplied PslG in vitro; FIG. 8B. The protocol:
The Psl extract from biofilm was prepared, fractionated on a Sephadex G-50 column, and irrigated with water at 0.67 ml/min. The total carbohydrate in each fraction (5 ml) was assayed colorimetrically for aldose. Briefly, 200 μl of each fraction was mixed with 100 μl 5% phenol and 500 μl concentrated sulfuric acid, reacted at room temperature for 30 minutes, and measured (OD492).
To confirm, the Psl extracted from PAO1 biofilms was treated with exogenous-supplied PslG in vitro.

For `O=C(O)c1cn(C2CC2)c2cc(N3CCNCC3)c(F)cc2c1=O` [ciprofloxacin], in data set [1], the “MIC of ΔpaaP, fold lower than PAO1” value was determined as 8 fold.
Take `CCCCCCCCCC(=O)CC(=O)N[C@H]1CCOC1=O` [C12-HSL, N-(3-oxododecanoyl)-L-homoserine lactone]: the “effect on psl transcription” value in data set [2] is reported as “psl transcription was enhanced”. The “effect on Psl production” value in data set [3] was “did increase Psl production in PAO1”.

B1: P. aeruginosa aminopeptidase (PaAP) (protein)
chain: APSEAQQFTEFWTPGKPNPSICKSPLLVSTPLGLPRCLQASNVVKRLQKLEDIASLNDGNRAAATPGYQASVDYVKQTLQKAGYKVSVQPFPFTAYYPKGPGSLSATVPQPVTYEWEKDFTYLSQTEAGDVTAKVVPVDLSLGAGNTSTSGCEAEDFANFPAGSIALIQRGTCNFEQKAENAAAAGAAGVIIFNQGNTDDRKGLENVTVGESYEGGIPVIFATYDNGVAWSQTPDLQLHLVVDVVRKKTETYNVVAETRRGNPNNVVMVGAHLDSVFEGPGINDNGSGSAAQLEMAVLLAKALPVNKVRFAWWGAEEAGLVGSTHYVQNLAPEEKKKIKAYLNFDMIGSPNFGNFIYDGDGSDFGLQGPPGSAAIERLFEAYFRLRGQQSEGTEIDFRSDYAEFFNSGIAFGGLFTGAEGLKTEEQAQKYGGTAGKAYDECYHSKCDGIANINQDALEIHSDAMAFVTSWLSLSTKVVDDEIAAAGQKAQSRSLQMQKSASQIERWGHDFIK
B1: in data set [4], the “PaAP catalytic activity (hydrolysis of Leu-p-nitroanilide, 7 nM PaAP with 10, 20, 30 µM Amastatin or without)” value was “the Amastatin may inhibit the enzyme activity of PaAP at micromolar concentrations, and the inhibition effect may increase with higher concentration of Amastatin”.

B2: PslG: glycosyl hydrolase of P. aeruginosa that degrades the Psl exopolysaccharide matrix; amino acid sequence SEQ ID NO: 6 (protein)
chain: EIQVLKAPRAVVWKDFLGVNAQFLWFSPERYNKQIDRLQDLGLEWVRLDLHWDRLETAEDQYQLASLDQLVKDLEARQLKSVFYLVGSARFITTAPFYSPFQDQYPPRDPEVFARRMAMLSQRYPSVAAWQVWNEPNLIGFWRPKADPEGYAKLLQASTIALRMVDPEKPVVSAGMAFFSEMPDGRTMFDALGHLGVESLGTIATYHPYTQLPEGNYPWNLDFVSHANQINRALRNAGVPAIWSTEWGWSAYKGPKELQDIIGVEGQADYVLRRLALMSALDYDRIFLFTLSDLDQRASVRDRDYGLLDLDANPKPVYLALQRFLKVTGPKLRPADPPVTEDLPDGSFSIGWTREDGRNVWLFWSARGGNVRLPKLKEATLHDPLSGKVTPLSGSDGLEVPVKSSLQMLVWE
B2: the “number of detected CFUs for treated biofilms” value in data set [5] is “significantly greater than the number of detected CFUs for the biofilms treated by tissue homogenate, and the biofilms in the control group”. In addition, the “dispersal of flocs in liquid culture” value in data set [6] is “can disperse the flocs of MJK8 and A1501 in liquid culture”; in data set [7] it was “can disperse the flocs of MJK8 and A1501 in liquid culture”. The “elution profile of PslG-degraded Psl” value in data set [8] is “showed a very similar profile as Psl extracted from the ΔpaaP biofilm”.
